Assay results reported in patent publication US20240148884A1 (Scripps Research, published 2024).
Like-named read-outs stand apart in the source and are kept apart here. Bridge positions count the residues as written; N and C are the ends. Square brackets hold non-standard residues; d marks the D form. Ends that are not written are not given here. C20L5A staple = not defined here; L5A(S) staple = not defined here; C20L5A = not defined here; L5A = not defined here; Aib = CC(C)(N)C(=O)O

What was measured:
Assay in all cases: cell-based or functional assay
human GIPR [1] = biological target: T1, human GIPR (human, UniProt P48546 22-466)
T1 sequence (looked up): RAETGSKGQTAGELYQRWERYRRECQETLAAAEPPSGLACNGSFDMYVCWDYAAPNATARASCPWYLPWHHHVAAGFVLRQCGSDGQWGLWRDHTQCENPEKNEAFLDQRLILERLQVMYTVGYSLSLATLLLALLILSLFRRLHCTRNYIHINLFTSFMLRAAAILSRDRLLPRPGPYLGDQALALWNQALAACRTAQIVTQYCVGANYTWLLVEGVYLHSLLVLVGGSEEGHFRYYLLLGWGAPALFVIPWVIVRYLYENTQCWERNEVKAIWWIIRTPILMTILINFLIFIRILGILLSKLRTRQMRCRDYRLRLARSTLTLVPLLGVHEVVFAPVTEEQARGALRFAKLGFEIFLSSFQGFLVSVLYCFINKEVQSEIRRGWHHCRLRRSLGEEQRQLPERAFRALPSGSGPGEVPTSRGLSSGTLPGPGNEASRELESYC

human GIPR [2] = biological target: T1, human GIPR; remark: listed apart in the source
human GIPR [3] = biological target: T1, human GIPR; remark: listed apart in the source
human GLP-1R [4] = biological target: T2, human GLP-1R (human, UniProt P43220 24-463)
Target sequence in this assay (P43220 24-463): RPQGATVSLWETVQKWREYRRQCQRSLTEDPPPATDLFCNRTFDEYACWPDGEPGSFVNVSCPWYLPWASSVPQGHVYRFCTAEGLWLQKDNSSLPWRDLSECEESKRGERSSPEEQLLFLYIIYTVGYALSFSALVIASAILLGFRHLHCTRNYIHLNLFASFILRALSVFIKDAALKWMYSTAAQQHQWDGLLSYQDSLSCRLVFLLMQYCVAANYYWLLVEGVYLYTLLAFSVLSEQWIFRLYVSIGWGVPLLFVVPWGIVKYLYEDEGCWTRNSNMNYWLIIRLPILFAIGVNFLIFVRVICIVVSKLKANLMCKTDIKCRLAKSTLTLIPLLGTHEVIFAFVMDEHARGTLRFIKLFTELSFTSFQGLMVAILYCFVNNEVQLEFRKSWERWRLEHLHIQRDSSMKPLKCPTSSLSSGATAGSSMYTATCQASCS

cynomolgous monkey GIPR = cynomolgous monkey GIPR (cynomolgous monkey)
cynomolgous monkey GLP1R = cynomolgous monkey GLP1R (cynomolgous monkey)
human GIPR [5] = biological target: T1, human GIPR; remark: listed apart in the source
mouse GLP1R = biological target: T3, mouse GLP1R (mouse, UniProt O35659 22-463, limits assumed)
T3 sequence (looked up): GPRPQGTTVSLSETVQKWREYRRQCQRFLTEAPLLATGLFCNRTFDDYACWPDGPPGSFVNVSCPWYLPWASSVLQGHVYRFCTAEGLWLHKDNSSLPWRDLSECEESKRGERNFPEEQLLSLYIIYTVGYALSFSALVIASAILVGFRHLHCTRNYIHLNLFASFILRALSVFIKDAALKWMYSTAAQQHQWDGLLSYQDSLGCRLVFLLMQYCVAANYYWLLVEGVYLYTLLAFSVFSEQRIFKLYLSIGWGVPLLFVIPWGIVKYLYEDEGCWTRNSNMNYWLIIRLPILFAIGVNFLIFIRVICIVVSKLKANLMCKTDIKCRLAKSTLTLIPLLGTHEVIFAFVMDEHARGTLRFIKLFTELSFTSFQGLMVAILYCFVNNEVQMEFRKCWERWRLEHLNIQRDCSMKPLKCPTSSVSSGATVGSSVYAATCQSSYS

human GLP-1R [6] = biological target: T2, human GLP-1R; remark: listed apart in the source
Target sequence in this assay (P43220 24-463): as the sequence (P43220 24-463) above

human GIPR [7] = biological target: T1, human GIPR; remark: listed apart in the source
human GLP-1R [8] = biological target: T2, human GLP-1R; remark: listed apart in the source
human GLP-1R [9] = biological target: T2, human GLP-1R; remark: listed apart in the source
Target sequence in this assay (P43220 24-463): as the sequence (P43220 24-463) above

Binder: Y[Aib]EGTFTSDYSIYCDKQAA[Aib]CFVNWLLAGGPSSGAPPPS-NH2 (linker 14-21 via C20L5A staple; reading uncertain) [C(14-21)-C20L5A]
- EC50 of receptor-mediated cAMP synthesis (average) (human GIPR [1]): 0.05 nM
- EC50 of receptor-mediated cAMP synthesis (human GIPR [2]): 0.05 nM

Binder: Y[Aib]EGTFTSDYSIYLDKCAQ[Aib]AFVCWLIAQGPSSGAPPPS-NH2 (linker 17-24 via C20L5A; reading uncertain) [19Q, 21A, 27I, 29Q, C(17-24) - C20L5A]
- EC50 of receptor-mediated cAMP synthesis (human GIPR [3]): 0.02 nM

Binder: Y[Aib]EGTYTSDYSIYLDKCAA[Aib]EFVCWLIAGGPSSGAPPPS-NH2 (linker 17-24 via C20L5A; reading uncertain) [6Y, 27I, C(17-24)-C20L5A]
- EC50 of receptor-mediated cAMP synthesis (02/19) (human GLP-1R [4]): 0.05 nM

B1: mCMV268 (27I, C(17-24)-C20L5A) (peptide)
peptide: YXEGTFTSDYSIYLDKCAAXEFVCWLIAGGPSSGAPPPS
modifications: Aib at positions 2 and 20; C-terminal amide (NH2); staple C20L5A attached at Cys17 and Cys24
- In Vitro Potency GIPR EC50 [nM], Cyno (cynomolgous monkey GIPR): 0.16 nM
- In Vitro Potency GLP1R EC50 [nM], Cyno (cynomolgous monkey GLP1R): 0.22 nM
- EC50 of receptor-mediated cAMP synthesis (02/19) (human GIPR [1]): 0.05 nM
- In Vitro Potency GIPR EC50 [nM], 10% FBS (human GIPR [5]): 0.09 nM
- In Vitro Potency GIPR EC50 [nM], No Serum (human GIPR [5]): 0.01 nM

Binder: Y[Aib]EGTFTSDYSIYLDKCAA[Aib]EFVCWLLAGGPSSGAPPPS-NH2 (linker 17-24 via L5A; reading uncertain) [C(17-24)-L5A]
- EC50 of receptor-mediated cAMP synthesis (human GIPR [3]): 0.05 nM

Binder: Y[Aib]EGTFTSDYSIYCDKQAA[Aib]CFVNWLIAGGPSSGAPPPS-NH2 (linker 14-21 via L5A; reading uncertain) [27I, C(14-21)-L5A]
- EC50 of receptor-mediated cAMP synthesis (human GIPR [2]): 0.03 nM

Binder: Y[Aib]EGTFTSDYSIYLDKCAA[Aib]EFVCWLIAGGPSSGAPPPS-NH2 (linker 17-24 via L5A(S) staple; reading uncertain) [mCMZ371 (C(17-24)-L5A(S))]
- In Vitro Potency GLP1R EC50 [nM], Mouse (mouse GLP1R): 0.09 nM
- In Vitro Potency GLP1R EC50 [nM], Cyno (cynomolgous monkey GLP1R): 0.11 nM
- In Vitro Potency GIPR EC50 [nM], No Serum (human GIPR [5]): 0.01 nM

Binder: Y[Aib]EGTFTSDYSIYLDKCAA[Aib]EFVCWLLAGGPSSGAPPPS-NH2 (linker 17-24 via C20L5A; reading uncertain) [C(17-24)-C20L5A]
- EC50 of receptor-mediated cAMP synthesis (3/25) (human GLP-1R [4]): 0.1 nM
- EC50 of receptor-mediated cAMP synthesis (03/26) (human GLP-1R [4]): 0.09 nM
- EC50 of receptor-mediated cAMP synthesis (average) (human GLP-1R [4]): 0.09 nM
- EC50 of receptor-mediated cAMP synthesis (03/25) (human GIPR [1]): 0.02 nM
- EC50 of receptor-mediated cAMP synthesis (03/26) (human GIPR [1]): 0.03 nM
- EC50 of receptor-mediated cAMP synthesis (average) (human GIPR [1]): 0.03 nM
- EC50 of receptor-mediated cAMP synthesis (human GIPR [3]): 0.05 nM

B2: mCLZ715 (peptide)
peptide: YXEGTFTSDYSIYKDKQAAXKFVNWLLAGGPSSGAPPPS
modifications: Aib at positions 2 and 20; C-terminal amide (NH2); staple K5 attached at Lys14 and Lys21
- EC50 of receptor-mediated cAMP synthesis (human GLP-1R [6]): 0.02 nM
- EC50 of receptor-mediated cAMP synthesis (human GIPR [7]): 0.02 nM

B3: mCMD307 (2050-K4) (peptide)
peptide: YXEGTFTSDYSIYKDKQAAXKFVNWLLAGGPSSGAPPPS
modifications: Aib at positions 2 and 20; C-terminal amide (NH2); staple K4 attached at Lys14 and Lys21
- EC50 of receptor-mediated cAMP synthesis (human GLP-1R [6]): 0.01 nM
- EC50 of receptor-mediated cAMP synthesis (human GIPR [7]): 0.02 nM
- EC50 of receptor-mediated cAMP synthesis (02/19) (human GLP-1R [4]): 0.01 nM
- EC50 of receptor-mediated cAMP synthesis (3/25) (human GLP-1R [4]): 0.01 nM
- EC50 of receptor-mediated cAMP synthesis (03/26) (human GLP-1R [4]): 0.01 nM
- EC50 of receptor-mediated cAMP synthesis (average) (human GLP-1R [4]): 0.01 nM
- EC50 of receptor-mediated cAMP synthesis (03/25) (human GIPR [1]): 0.01 nM
- EC50 of receptor-mediated cAMP synthesis (03/26) (human GIPR [1]): 0.01 nM
- EC50 of receptor-mediated cAMP synthesis (average) (human GIPR [1]): 0.02 nM
- EC50 of receptor-mediated cAMP synthesis (human GLP-1R [8]): 0.03 nM
- EC50 of receptor-mediated cAMP synthesis (human GIPR [3]): 0.01 nM
- EC50 of receptor-mediated cAMP synthesis (human GLP-1R [9]): 0.03 nM
- EC50 of receptor-mediated cAMP synthesis (human GIPR [2]): 0.01 nM

B4: mCMV266 (27I, C(14-21)-C20L5A) (peptide)
peptide: YXEGTFTSDYSIYCDKQAAXCFVNWLIAGGPSSGAPPPS
modifications: Aib at positions 2 and 20; C-terminal amide (NH2); staple C20L5A attached at Cys14 and Cys21
- EC50 of receptor-mediated cAMP synthesis (02/19) (human GLP-1R [4]): 0.03 nM
- EC50 of receptor-mediated cAMP synthesis (3/25) (human GLP-1R [4]): 0.05 nM
- EC50 of receptor-mediated cAMP synthesis (average) (human GLP-1R [4]): 0.05 nM
- EC50 of receptor-mediated cAMP synthesis (human GLP-1R [9]): 0.05 nM

B5: mCMC759 (C(14-21)-L5A) (peptide)
peptide: YXEGTFTSDYSIYCDKQAAXCFVNWLLAGGPSSGAPPPS
modifications: Aib at positions 2 and 20; C-terminal amide (NH2); staple L5A attached at Cys14 and Cys21
- EC50 of receptor-mediated cAMP synthesis (human GIPR [3]): 0.03 nM
- EC50 of receptor-mediated cAMP synthesis (human GIPR [2]): 0.03 nM
